Results reported in patent publication US20110034670A1 (BOARD OF GOVERNORS FOR HIGHER EDUCATION STATE OF RHODE …, published 2011).
Blank lines part the entries; values can stand above or below the binder they belong to. *1 amine or outer side, *2 acyl side, *3 side chain or, on linkers, in order; H or OH if unused. Where no end group is shown, it is not given here. [ ]: non-standard residue; d: D form. Phe(4-NHSO2CH3) = 4-(methylsulfonamido)phenylalanine, CS(=O)(=O)Nc1ccc(C[C@H](N[*:1])C(=O)[*:2])cc1; Phe(4-guanidino) = N=C(N)Nc1ccc(C[C@H](N)C(=O)O)cc1; pY = N[C@@H](Cc1ccc(OP(=O)(O)O)cc1)C(=O)O; Phe(4-Cl) = N[C@@H](Cc1ccc(Cl)cc1)C(=O)O; Phe(4-F) = N[C@@H](Cc1ccc(F)cc1)C(=O)O; Phe(4-I) = N[C@@H](Cc1ccc(I)cc1)C(=O)O; Phe(NH2) = aminophenylalanine; Phe(NO2) = nitrophenylalanine; Phe(CN) = cyanophenylalanine; Phe(N3) = azidophenylalanine; βAla = NCCC(=O)O

What was measured:
Src tyrosine kinase [1] = test: cell-based or functional assay
Src tyrosine kinase [2] = test: cell-based or functional assay; remark: listed apart in the source
Src tyrosine kinase [3] = test: cell-based or functional assay; remark: listed apart in the source
Src tyrosine kinase [4] = test: steady-state kinetics, radioactive kinase assay; ATP-binding site of Src

B2: Ac-CIF(NO2)KF(NO2)Y (69) (peptide)
peptide: Ac-CI[Phe(NO2)]K[Phe(NO2)]Y
IC50, inhibitory potency (Src kinase assay, polyE4Y phosphorylation) (Src tyrosine kinase [2]): 1.4 µM

B3: Ac-CIYKF(NH2)Y (63) (peptide)
peptide: Ac-CIYK[Phe(NH2)]Y
IC50, inhibitory potency (Src kinase assay, polyE4Y phosphorylation) (Src tyrosine kinase [3]): 93 µM

B7: 3-phenylpyrazolopyrimidine-peptide conjugate 43 (3-phenylpyrazolopyrimidine-YIYGSFK) (peptide)
peptide: YIYGSFK
modifications: not fully specified (N-terminus); also: short linker between the label and the N-terminus not given here
IC50, inhibition of polyE4Y phosphorylation by active Src (Src tyrosine kinase [1]): 2.7 µM

B8: Ac-CIYKF(4-C1)Y (75) (peptide)
peptide: Ac-CIYK[Phe(4-Cl)]Y
IC50, inhibitory potency (Src kinase assay, polyE4Y phosphorylation) (Src tyrosine kinase [3]): 7.3 µM

B9: Ac-CIF(NO2)KYF(NO2) (71) (peptide)
peptide: Ac-CI[Phe(NO2)]KY[Phe(NO2)]
IC50, inhibitory potency (Src kinase assay, polyE4Y phosphorylation) (Src tyrosine kinase [2]): 3.4 µM

B10: Ac-CIYKF(4-Guanidine)Y (73) (peptide)
peptide: Ac-CIYK[Phe(4-guanidino)]Y
IC50, inhibitory potency (Src kinase assay, polyE4Y phosphorylation) (Src tyrosine kinase [3]): > 700 µM

B11: Ac-CIYKF(4-I)Y (76) (peptide)
peptide: Ac-CIYK[Phe(4-I)]Y
IC50, inhibitory potency (Src kinase assay, polyE4Y phosphorylation) (Src tyrosine kinase [3]): 0.78 µM

B15: 3-phenylpyrazolopyrimidine-peptide conjugate 45 (peptide)
peptide: Cys-Ile-Tyr
modifications: not fully specified (N-terminus); also: short linker to N-terminus
fold reduction of inhibitory activity compared to 42 (Src tyrosine kinase [1]): ~145 fold

B16: Ac-CIYKF(NO2)F(NO2) (70) (peptide)
peptide: Ac-CIYK[Phe(NO2)][Phe(NO2)]
IC50, inhibitory potency (Src kinase assay, polyE4Y phosphorylation) (Src tyrosine kinase [2]): 5.6 µM

B17: Ac-CIYKF(CN)Y (78) (peptide)
peptide: Ac-CIYK[Phe(CN)]Y
IC50, inhibitory potency (Src kinase assay, polyE4Y phosphorylation) (Src tyrosine kinase [3]): 6 µM

B18: Ac-CIYKF(4-NHSO2CH3)Y (80) (peptide)
peptide: Ac-CIYK[Phe(4-NHSO2CH3)]Y
IC50, inhibitory potency (Src kinase assay, polyE4Y phosphorylation) (Src tyrosine kinase [3]): > 100 µM

B22: Ac-CIF(NO2)KYY (64) (peptide)
peptide: Ac-CI[Phe(NO2)]KYY
IC50, inhibitory potency (Src kinase assay, polyE4Y phosphorylation) (Src tyrosine kinase [3]): 1.5 µM

B24: Ac-CIYKF(4-F)Y (74) (peptide)
peptide: Ac-CIYK[Phe(4-F)]Y
IC50, inhibitory potency (Src kinase assay, polyE4Y phosphorylation) (Src tyrosine kinase [3]): 26 µM

B25: ATP-βAla-pTyr-Glu-Glu-Ile-OH (1) (peptide)
peptide: {ATP}-[βAla][pY]EEI-OH
notes: also called compound 1; ATP-phosphopeptide conjugate 1
Ki (Src tyrosine kinase [4]): 1700 nM

B28: 3-phenylpyrazolopyrimidine-peptide conjugate 53 (peptide)
peptide: YIYGSFK(3‑phenylpyrazolopyrimidine)
fold reduction of inhibitory potency compared to 43 (Src tyrosine kinase [1]): 11 fold

B29: 3-phenylpyrazolopyrimidine-peptide conjugate 54 (peptide)
peptide: {3‑phenylpyrazolopyrimidine}-GCIYKYY
fold reduction of inhibitory potency compared to 42 (Src tyrosine kinase [1]): 21 fold

B30: Ac-CIYKF(N3)Y (79) (peptide)
peptide: Ac-CIYK[Phe(N3)]Y
IC50, inhibitory potency (Src kinase assay, polyE4Y phosphorylation) (Src tyrosine kinase [3]): 2 µM

B32: Ac-CIF(NH2)KYY (67) (peptide)
peptide: Ac-CI[Phe(NH2)]KYY
IC50, inhibitory potency (Src kinase assay, polyE4Y phosphorylation) (Src tyrosine kinase [3]): 760 µM

Next, values leading:

IC50, inhibition of polyE4Y phosphorylation (radioactive kinase assay) (Src tyrosine kinase [1]): 570 µM
B1: Ac-YIYGSFK (41) (peptide)
peptide: Ac-YIYGSFK

IC50, inhibitory potency (Src kinase assay, polyE4Y phosphorylation) (Src tyrosine kinase [3]): > 700 µM
B4: Ac-CIYKFY (61) (peptide)
peptide: Ac-CIYKFY

IC50, inhibitory potency (Src kinase assay, polyE4Y phosphorylation) (Src tyrosine kinase [2]): > 100 µM
B5: Ac-CYKpYY (84) (peptide)
peptide: Ac-CYK[pY]Y

IC50, inhibitory potency (Src kinase assay, polyE4Y phosphorylation) (Src tyrosine kinase [3]): > 100 µM
B6: YIF(NO2)GSFK (86) (peptide)
peptide: YI[Phe(NO2)]GSFK

IC50, inhibitory potency (Src kinase assay, polyE4Y phosphorylation) (Src tyrosine kinase [3]): > 100 µM
B12: Ac-YIF(NO2)GSFK (87) (peptide)
peptide: Ac-YI[Phe(NO2)]GSFK

IC50, inhibitory potency (Src kinase assay, polyE4Y phosphorylation) (Src tyrosine kinase [3]): 3 µM
B13: CIYKF(NO2)Y (77) (peptide)
peptide: CIYK[Phe(NO2)]Y

IC50, inhibitory potency (Src kinase assay, polyE4Y phosphorylation) (Src tyrosine kinase [2]): 1 µM
B14: Ac-CIYKF(NO2)YF (65) (peptide)
peptide: Ac-CIYK[Phe(NO2)]YF

IC50, inhibitory potency (Src kinase assay, polyE4Y phosphorylation) (Src tyrosine kinase [3]): 0.53 µM | fold higher inhibitory potency versus 40 (Src tyrosine kinase [1]): ~750 fold
B19: Ac-CIYKF(NO2)Y (62) (peptide)
peptide: Ac-CIYK[Phe(NO2)]Y

IC50, inhibitory potency (Src kinase assay, polyE4Y phosphorylation) (Src tyrosine kinase [3]): 10.8 µM
B20: Ac-CIYKYF(NO2) (66) (peptide)
peptide: Ac-CIYKY[Phe(NO2)]

IC50, inhibitory potency (Src kinase assay, polyE4Y phosphorylation) (Src tyrosine kinase [2]): > 100 µM
B21: Ac-CIYKY (82) (peptide)
peptide: Ac-CIYKY

IC50, inhibitory potency (Src kinase assay, polyE4Y phosphorylation) (Src tyrosine kinase [3]): > 100 µM
B23: YIYGSFK (85) (peptide)
peptide: YIYGSFK

IC50, inhibitory potency (Src kinase assay, polyE4Y phosphorylation) (Src tyrosine kinase [2]): 39 µM
B26: Ac-CYKF(4-C1)Y (83) (peptide)
peptide: Ac-CYK[Phe(4-Cl)]Y

IC50, inhibitory potency (Src kinase assay, polyE4Y phosphorylation) (Src tyrosine kinase [2]): 211 µM
B27: IYKYY (81) (peptide)
peptide: IYKYY

IC50, inhibitory potency (Src kinase assay, polyE4Y phosphorylation) (Src tyrosine kinase [3]): > 700 µM
B31: Ac-CIYKYF(NH2) (68) (peptide)
peptide: Ac-CIYKY[Phe(NH2)]
